PMC12263440
Several values for one entry are separate records, joined by “and”; a condition that tells them apart may be missing. Equal values may be shown once.

Biological target: nucleosome containing the 193-bp Widom 601 DNA (24-bp linker DNAs at both ends) (human) (UniProt P04908)
Assay: mass photometry; 193-bp 601 nucleosome (1 µM) and DEK (2 µM) in 18 mM Tris-HCl pH 7.5, 60 mM NaCl, overnight at room temperature; diluted 1:40 for recording

stoichiometry N (DEK molecules per nucleosome): 1 and 2
Substance: recombinant human DEK protein (wild type) (from UniProt P35659 1-375) (natural protein)
